Data reported in patent US20240240209A1, “SYNTHESIS OF ENANTIOPURE CIS-A-IRONE FROM A RENEWABLE CARBON SOURCE” (Agency for Science, Technology and Research, priority 2021, published 2024).
Changes are numbered by the printed parent chain. Names may count otherwise. “Also recorded” adds a separate entry of the source.

B1: pMT1_E153A: pMT1 with E153A (protein)
chain: MPQEARTPQQQVTADEVGDWYDKFGEVYHLTLGESVHCGLWFPPDAPVPQDMELVTMSSQAQDRYTDYLIETLDPKAGQHLLDIGCGTGRTALKAARQRGIAVTGVAVSKEQIAAANRLAAGHGLTERLTFEVADAMRLPYEDESFDCAWAIASLCHMDRAKALGEAWRVLKPGGDLLVLESVVTEELTEPETALFETLYAANVPPRLGEFFDIVSGAGFHTLSLKDLSANLAMTMNVFALGVYSRRAEFTERFGAEFVDGLLAGLGSAQETLIRKTRFFMATLRKPAV
B2: pMT1_R160D (protein)
chain: B1 chain with A153E, R160D
B3: pMT1_M236C: pMT1 with M236C (protein)
chain: B1 chain with A153E, M236C
B4: pMT1_M236E: pMT1 with M236E (protein)
chain: B1 chain with A153E, M236E
B5: pMT1_R160E (protein)
chain: B1 chain with A153E, R160E
B6: pMT1_E153C: pMT1 with E153C (protein)
chain: B1 chain with A153C
B7: pMT1_M236D: pMT1 with M236D (protein)
chain: B1 chain with A153E, M236D
B8: pMT1_E153D: pMT1 with E153D (protein)
chain: B1 chain with A153D
B9: pMT1_R160C: pMT1 with R160C (protein)
chain: B1 chain with A153E, R160C
B10: Q11H (protein)
chain: MPQEARTPQQHVTADEVGDWYDKFGEVYHLTLGESVHCGLWFPPDAPVPQDMELVTMSSQAQDRFTDYLIETLDPKAGQHLLDIGCGTGRPALKAARQRGIAVTGVAVSKEQIAAANRLAAGHGLTERLTFEVADAMRLPYEDESFDCAWAIESLDHMDRAKALGEAWRVLKPGGDLLVAEEVVTEELTEPETALFETLFALNVPPRLGEFFDIVSGAGFHTLSLKDLSADLAMTMNVFALGVYSRRAEFTERFGAEFVDGLLAGLGSAQETVIRKTRFFMATLRKPAV
modifications: Modified from pMT1
B11: Q60R (protein)
chain: B10 chain
modifications: Modified from pMT1
B12: pMT1_Y200C: pMT1 with Y200C (protein)
chain: B1 chain with A153E, Y200C
B13: D176R (protein)
chain: B10 chain with H11Q, D176R
modifications: Modified from pMT1
B14: D176L, A248V: pMT12 with D176L and A248V (protein)
chain: B10 chain with H11Q, D176L, A248V
modifications: Modified from pMT1
B15: D159L (protein)
chain: B10 chain with H11Q, D159L
modifications: Modified from pMT1
B16: D176Y (protein)
chain: B10 chain with H11Q, D176Y
modifications: Modified from pMT1
B17: H123Q (protein)
chain: B10 chain with H11Q, H123Q
modifications: Modified from pMT1
B18: E190Q (protein)
chain: B10 chain with H11Q, E190Q
modifications: Modified from pMT1
B19: P191V (protein)
chain: B10 chain with H11Q, P191V
modifications: Modified from pMT1
B20: Q11W (protein)
chain: B10 chain with H11W
modifications: Modified from pMT1
B21: E190P, G122S (protein)
chain: B10 chain with H11Q, G122S, E190P
B22: pMT1_Y200D: pMT1 with Y200D (protein)
chain: B1 chain with A153E, Y200D
B23: pMT1_Y200E: pMT1 with Y200E (protein)
chain: B1 chain with A153E, Y200E
B24: D176L: pMT12 with D176L (protein)
chain: B10 chain with H11Q, D176L
modifications: Modified from pMT1
B25: D176K (protein)
chain: B10 chain with H11Q, D176K
modifications: Modified from pMT1
B26: D176V (protein)
chain: B10 chain with H11Q, D176V
modifications: Modified from pMT1
B27: Q60K (protein)
chain: B10 chain with H11Q, Q60R, P91T, D156C, D231N
modifications: Modified from pMT1
B28: pMT1_S182E: pMT1 with S182E (protein)
chain: B1 chain with A153E, S182E

Experiments:
[1] = Cell lysate reaction of pMT enzymes with psi-ionone, irones quantified by HS-SPME-GCMS; assay type: biochemical; settings: AUC vs non-mutated (=1)
In short: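 pMT1 site-saturation mutants were expressed in E. coli BL21(DE3) and lysed, and lysates were incubated 2 days at 28 °C with 0.2 mM SAM and 10 mg/L psi-ionone (plus caryophyllene) in 50 mM Tris pH 7, 10 mM MgCl2. Cis-α-irone was measured by HS-SPME-GCMS peak area and given as fold change over non-mutated enzyme.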

[2] = In-vivo cis-α-irone production screening of pMT7 and pMT12 mutants; assay type: cell-based, Escherichia coli; settings: for in-vivo production of cis-α-irone (in words): single mutations vs parent (pMT7 or pMT12); for Fold change in in-vivo cis-α-irone production: mutations made to pMT12, normalized to pMT12 (=1)
Description: Q60 was identified as another possible mutation site.
FIGS. 24a and 24b show the in-vivo and in-vitro cis-α-irone production of other possible single mutations to pMT12. The in-vitro results in FIG. 24b validate the mutations and in-vivo results in FIG. 24a. The mutations in FIG. 24 include Q11H (SEQ ID No. 23), V12R (SEQ ID No. 24), A95C (SEQ ID No. 25), H123Q (SEQ ID No. 26), E127T (SEQ ID No. 27), M137T (SEQ ID No. 28), D176V (SEQ ID No. 29), D176Y (SEQ ID No. 30). P191S (SEQ ID No. 31), P191V (SEQ ID No. 32), F212L (SEQ ID No. 33), S268H (SEQ ID No. 34), AND T272A (SEQ ID No. 35). The screening results in FIGS. 24 and 25 are semi-quantitative to identify beneficial mutants that give greater than one-fold change of irone production as compared to pMT12.
FIGS. 25a to 25c (and Table 4) show the in-vivo testing results of other possible mutations that may be made to pMT12 to improve its in-vivo production of cis-α-irone. FIGS. 25a to 25c each include two dotted lines to account for a 10% error bar to show the normalized fold change of 0.9 and 1.1.
The four plasmids were transformed into E. coli BL21 (DE3), ΔaroA, ΔaroB, ΔaroC, ΔserC or E. coli BL21 (DE3), ΔaroA, ΔaroB, ΔaroC, ΔserC, ΔmetJ strains and plated on Agar plate containing LB media (10 g, tryptone. 5 g, yeast extract. 10 g, NaCl) supplemented with appropriate antibiotics (100 mg/L ampicillin, 34 mg/L chloramphenicol, 50 mg/L kanamycin, and 100 mg/L spectinomycin). One colony was picked and inoculate into LB media with antibiotics. 1% of overnight culture was inoculated into 1 ml fresh auto-inducing chemically defined media. The chemical media contains carbon source solution: 0.5 g/L glucose, 10 g/L glycerol; inducer: 30 mM lactose and base media: 2 g/L ammonium sulfate, 4.2 g/L KH2PO4, 11.24 g/L K2HPO4, 1.7 g/L citric acid, 0.5 g/L MgSO4, and 10 mL/L trace element solution. The trace element solution (100×) contained 0.25 g/L CoCl2·6H2O, 1.5 g/L MnSO4·4H2O, 0.15 g/L CuSO4·2H2O, 0.3 g/L H3BO3, 0.25 g/L Na2MoO4·2H2O, 0.8 g/L Zn(CH3COO)2, 5 g/L Fe(III) citrate, and 0.84 g/L ethylenediaminetetra-acetic acid (EDTA) at pH 8.0. The culture was grown at 28° C. for 3 days and the products were extracted with 1 ml hexane for GCMS analysis. An example of a fed-batch process for α-ionone Is briefly described, overnight culture was inoculated into 2 L chemical media comprising the base media and 5 g/L glucose, at 37° C. and 30% DO. pH was controlled at 7 with base solution (14% ammonia and 0.5 M NaOH). Feed media (500 g/L glucose and 5 g/L MgSO4) was added into bioreactor once OD600 reached 5, at a rate of 7.15-25.75 g/h glucose for about 4-5 h until OD600 reached ˜30-40. Subsequently, 0.1 mM IPTG was added to induce the production, and feeding rate was kept at a constant rate of 10 g/h glucose, and the temperature was reduced to 30° C. DO was adjusted to 2% or 10%. Feeding was stopped at 113 h when 2 L feeding media was finished, but the culture was further incubated for 24 h. To capture the evaporated products, the exhaust was connected to 25 ml sunflower oil.

Row | Molecule | in-vivo production of cis-α-irone (in words) [2] | Fold change in in-vivo cis-α-irone production [2] | also measured
1 | B1 | – | – | fold change in cis-α-irone produced ([1]; pMT1_E153 mutants): 0.1
2 | B2 | – | – | fold change in cis-α-irone produced ([1]; pMT1_R160 mutants): 0.0
3 | B3 | – | – | fold change in cis-α-irone produced ([1]; pMT1_M236 mutants): 4.7
4 | B4 | – | – | fold change in cis-α-irone produced ([1]; pMT1_M236 mutants): 0.9
5 | B5 | – | – | fold change in cis-α-irone produced ([1]; pMT1_R160 mutants): 0.0
6 | B6 | – | – | fold change in cis-α-irone produced ([1]; pMT1_E153 mutants): 0.0
7 | B7 | – | – | fold change in cis-α-irone produced ([1]; pMT1_M236 mutants): 0.0
8 | B8 | – | – | fold change in cis-α-irone produced ([1]; pMT1_E153 mutants): 0.2
9 | B9 | – | – | fold change in cis-α-irone produced ([1]; pMT1_R160 mutants): 1.5
10 | B10 | significant increase | – | –
11 | B11 | increased cis-α-irone production in-vivo | – | –
12 | B12 | – | – | fold change in cis-α-irone produced ([1]; pMT1_Y200 mutants): 0.1
13 | B13 | significant improvement | 1.80 | –
14 | B14 | significant improvement | 3.14 | –
15 | B15 | significant improvement | 1.55 | –
16 | B16 | significant increase | – | –
17 | B17 | – | 0.87 | –
18 | B18 | significant improvement | 2.90 | –
19 | B19 | significant increase | 1.26 | –
20 | B20 | – | 0.90 | –
21 | B21 | – | 1.02 | –
22 | B22 | – | – | fold change in cis-α-irone produced ([1]; pMT1_Y200 mutants): 0.0
23 | B23 | – | – | fold change in cis-α-irone produced ([1]; pMT1_Y200 mutants): 0.0
24 | B24 | significant improvement | 2.52 | –
25 | B25 | significant improvement | 1.90 | –
26 | B26 | significant increase; also recorded: significant improvement | 2.24 | –
27 | B27 | increased cis-α-irone production in-vivo | – | –
28 | B28 | – | – | fold change in cis-α-irone produced ([1]; pMT1_S182 mutants): 0.84
